In the supplement of paper PMC6757056:
± gives the standard deviation of the averaged measurements.

B1: library; a variant is named by its letters at N, in order (parent)
chain: GCUGUCACCGGUGCUUGGUACGUUAUAUUCAGCCGGUCUGAUGAGUCUNNNNNNAGACGAAACAGC

Key:
(6R,S)-folinic acid [1] = variants of: B1; assay: FACS-Seq fitted mean relative fluorescence mCherry/BFP without ligand (log10 relative fluorescence); HEK293T overexpressing SLC46A1; higher = higher reporter protein expression; conditions: without (6R,S)-folinic acid; ligand present: no
Method in brief: (§1)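 Reporter cells were enriched HEK293T libraries transduced by lentivirus with mCherry behind the ribozyme switch and with an EF1α-BFP marker. Following 48 h with or without ligand, they were sorted into 6 mCherry/BFP bins, and bin genomic DNA was PCR-amplified, barcoded and MiSeq-sequenced. Fluorescence was computed as the fitted normal mean of the bin counts. The fit used log10(mCherry/BFP), with scaling to five spiked-in control ribozymes.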

(6R,S)-folinic acid [2] = variants of: B1; assay: normalized RNA/DNA level without ligand (relative to sTRSVctl = 100) (log10 (% of sTRSVctl)); HEK293T overexpressing SLC46A1; higher = less ribozyme self-cleavage, higher mRNA level; conditions: without (6R,S)-folinic acid; ligand present: no
Method in brief: (§2)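 Ribozyme switch library plasmids linked to reporters were introduced into HEK293T cells at 4 µg per 6-well well, with ligand, if any, added 1 h before. Total RNA was extracted with EDTA 72 h later, reverse-transcribed, amplified, barcoded and sequenced. RNA level was computed from RNA over DNA reads relative to a spiked-in non-cleaving sequence or the top sequences, then scaled and log-transformed. The top set was 25 sequences, values were ×100 and log10, and the cutoff was ≥100 DNA reads.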

(6R,S)-folinic acid [3] = variants of: B1; assay: FACS-Seq fitted mean relative fluorescence mCherry/BFP with ligand (log10 relative fluorescence); HEK293T overexpressing SLC46A1; ligand concentration (+) FACS-Seq: 6 mM; higher = higher reporter protein expression; conditions: with (6R,S)-folinic acid; ligand present: yes
Method in brief: as §1

(6R,S)-folinic acid [4] = variants of: B1; assay: normalized RNA/DNA level with ligand (relative to sTRSVctl = 100) (log10 (% of sTRSVctl)); HEK293T overexpressing SLC46A1; ligand concentration (+) RNA-Seq: 6 mM; higher = less ribozyme self-cleavage, higher mRNA level; conditions: with (6R,S)-folinic acid; ligand present: yes
Method in brief: as §2

Variant	FACS-Seq fitted mean (log10) ((6R,S)-folinic acid [1])	normalized RNA/DNA level without ligand (log10) ((6R,S)-folinic acid [2])	FACS-Seq fitted mean (log10) ((6R,S)-folinic acid [3])	normalized RNA/DNA level with ligand (log10) ((6R,S)-folinic acid [4])
GCUGUCACCGGUGCUUGGUACGUUAUAUUCAGCCGGUCUGAUGAGUCUAUGUAGAGACGAAACAGC	0.508 ± 0.058	1.864 ± 0.016	0.615 ± 0.17	1.99 ± 0.035
GCUGUCACCGGUGCUUGGUACGUUAUAUUCAGCCGGUCUGAUGAGUCUUUUAAGAGACGAAACAGC	0.386 ± 0.13	1.769 ± 0.0025	0.698 ± 0.2	1.96 ± 0.046
GCUGUCACCGGUGCUUGGUACGUUAUAUUCAGCCGGUCUGAUGAGUCUAUGGUUAGACGAAACAGC	0.245 ± 0.097	1.98 ± 0.026	0.136 ± 0.14	2.01 ± 0.027
GCUGUCACCGGUGCUUGGUACGUUAUAUUCAGCCGGUCUGAUGAGUCUUUGUAGAGACGAAACAGC	0.271 ± 0.0067	1.866 ± 0.0056	0.397 ± 0.18	1.992 ± 0.0089
GCUGUCACCGGUGCUUGGUACGUUAUAUUCAGCCGGUCUGAUGAGUCUUUGUAUAGACGAAACAGC	-0.387 ± 0.048	1.99 ± 0.02	-0.176 ± 0.12	2.014 ± 0.0072
GCUGUCACCGGUGCUUGGUACGUUAUAUUCAGCCGGUCUGAUGAGUCUGUGUACAGACGAAACAGC	-0.753 ± 0.24	1.942 ± 0.0035	-0.684 ± 0.34	2.005 ± 0.0037
GCUGUCACCGGUGCUUGGUACGUUAUAUUCAGCCGGUCUGAUGAGUCUGUGUAAAGACGAAACAGC	0.21 ± 0.21	1.957 ± 0.0042	0.383 ± 0.18	2 ± 0.041
GCUGUCACCGGUGCUUGGUACGUUAUAUUCAGCCGGUCUGAUGAGUCUGUGUAGAGACGAAACAGC	0.435 ± 0.018	1.899 ± 0.0022	0.514 ± 0.18	1.998 ± 0.016
GCUGUCACCGGUGCUUGGUACGUUAUAUUCAGCCGGUCUGAUGAGUCUCUGUAUAGACGAAACAGC	0.306 ± 0.094	1.981 ± 0.0073	0.479 ± 0.11	2 ± 0.021
GCUGUCACCGGUGCUUGGUACGUUAUAUUCAGCCGGUCUGAUGAGUCUGUGUGAAGACGAAACAGC	0.383 ± 0.041	1.9667 ± 0.00054	0.136 ± 0.21	2.038 ± 0.013
GCUGUCACCGGUGCUUGGUACGUUAUAUUCAGCCGGUCUGAUGAGUCUGUGUGUAGACGAAACAGC	0.164 ± 0.1	1.942 ± 0.0063	0.271 ± 0.083	2.02 ± 0.036
GCUGUCACCGGUGCUUGGUACGUUAUAUUCAGCCGGUCUGAUGAGUCUGUGUGCAGACGAAACAGC	-0.0812 ± 0.0037	1.758 ± 0.017	0.131 ± 0.14	1.979 ± 0.0082
GCUGUCACCGGUGCUUGGUACGUUAUAUUCAGCCGGUCUGAUGAGUCUUUUACCAGACGAAACAGC	0.636 ± 0.0052	1.996 ± 0.018	0.724 ± 0.077	1.97 ± 0.036
GCUGUCACCGGUGCUUGGUACGUUAUAUUCAGCCGGUCUGAUGAGUCUUUUACUAGACGAAACAGC	0.0671 ± 0.017	2.032 ± 0.0085	-0.0776 ± 0.03	2.033 ± 0.013
GCUGUCACCGGUGCUUGGUACGUUAUAUUCAGCCGGUCUGAUGAGUCUAUGUGGAGACGAAACAGC	0.0386 ± 0.035	1.844 ± 0.0091	0.311 ± 0.041	2.01 ± 0.046
GCUGUCACCGGUGCUUGGUACGUUAUAUUCAGCCGGUCUGAUGAGUCUGUGUCAAGACGAAACAGC	0.425 ± 0.12	2.008 ± 0.0044	0.477 ± 0.009	2.03 ± 0.033
GCUGUCACCGGUGCUUGGUACGUUAUAUUCAGCCGGUCUGAUGAGUCUAUUAAAAGACGAAACAGC	0.22 ± 0.063	1.974 ± 0.0062	0.296 ± 0.21	1.992 ± 0.0089
GCUGUCACCGGUGCUUGGUACGUUAUAUUCAGCCGGUCUGAUGAGUCUUUGUUAAGACGAAACAGC	0.514 ± 0.052	2.03 ± 0.014	0.793 ± 0.16	2.07 ± 0.031
GCUGUCACCGGUGCUUGGUACGUUAUAUUCAGCCGGUCUGAUGAGUCUUUGGUGAGACGAAACAGC	0.364 ± 0.16	1.75 ± 0.031	0.52 ± 0.26	2.01 ± 0.053
GCUGUCACCGGUGCUUGGUACGUUAUAUUCAGCCGGUCUGAUGAGUCUGUGGUUAGACGAAACAGC	0.311 ± 0.089	2.014 ± 0.0041	0.443 ± 0.013	2.02 ± 0.037
GCUGUCACCGGUGCUUGGUACGUUAUAUUCAGCCGGUCUGAUGAGUCUGUUACCAGACGAAACAGC	0.497 ± 0.022	2.047 ± 0.013	0.281 ± 0.23	2.03 ± 0.026
